Measured values as given in article PMC6684798, “Structural basis for the target specificity of actin histidine methyltransferase SETD3” (Nature Communications, 2019).

Biological target: T1, SETD3 WT (Homo sapiens, UniProt Q86TU7)
T1 construct: GST (cleaved yes); made in house; host or cells: Escherichia coli BL21(DE3) CodonPlus
T1 sequence (Q86TU7 1-594): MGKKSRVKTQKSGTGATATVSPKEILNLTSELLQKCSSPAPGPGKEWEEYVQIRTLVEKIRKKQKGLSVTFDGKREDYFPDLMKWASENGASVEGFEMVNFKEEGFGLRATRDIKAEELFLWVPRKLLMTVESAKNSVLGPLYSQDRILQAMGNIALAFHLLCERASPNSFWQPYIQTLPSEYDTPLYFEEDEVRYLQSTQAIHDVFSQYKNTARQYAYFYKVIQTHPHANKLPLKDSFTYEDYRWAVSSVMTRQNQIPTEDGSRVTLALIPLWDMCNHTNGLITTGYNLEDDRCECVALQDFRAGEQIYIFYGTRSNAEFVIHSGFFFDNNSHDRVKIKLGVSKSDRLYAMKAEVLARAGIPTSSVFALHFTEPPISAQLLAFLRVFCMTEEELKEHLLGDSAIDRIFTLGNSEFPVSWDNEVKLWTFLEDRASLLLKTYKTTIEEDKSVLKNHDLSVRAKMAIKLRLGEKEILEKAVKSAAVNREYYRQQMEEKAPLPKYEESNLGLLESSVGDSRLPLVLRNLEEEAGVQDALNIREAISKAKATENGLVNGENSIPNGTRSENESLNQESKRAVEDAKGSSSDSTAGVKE
Assay: Steady-state kinetics of SETD3 WT on K73 peptides (Fig. 3b, c; pH 10.5, 37 °C, 40 µM SAM)
Type: biochemical
Description: Fig. 3 Kinetics of SETD3 on H73 and K73 peptides. a Comparison of activities of three variants (WT, N255A, and N255V) on H73(66–80) peptide. The assays were performed at room temperature (~22 °C) and pH 8.0 using [WT] = 0.18 μM, [N255A] = 0.18 μM, and [N255V] = 0.72 μM. b Comparison of SETD3 WT activities on two K73 peptides (residues 66–80 and 66–88). The assays were performed at 37 °C and pH 10.5 using [WT] = 3 and 15 μM, respectively, for the long and short peptides. c Comparison of activities of three variants (N255A, N255V, and WT) on K73(66–88) peptide. The assays were performed at 37 °C and pH 10.5 using [N255A] = 90 nM, [N255V] = 0.72 μM and [WT] = 4 μM. Data represent the mean ± SD of N number of independent determinations (N = 3 for the WT and N = 2 for the mutants) performed in duplicate. Source data are provided as a Source Data file. d, e Mass spectrometry analysis of K73(66–88) methylation kinetic showing representative spectra at various time points for N255A variant (panel d) and SETD3 WT enzyme (panel e). The assays were performed at 37 °C and pH 10.5 using 3 μM for both N255A and WT. f In vitro methylation reactions with SETD3, indicated full-length actin proteins, and radiolabeled methyl donor (^3H-SAM). Right, Reactions were resolved by SDS–PAGE and activity was visualized by autoradiography. […] The first column head is 'SETD3', and the substrate peptide is printed only on the plot axis. / Panel b: the first column head is 'SETD3 (WT)', and the rows are K73 peptide substrates.
Recombinant human SETD3 (pXC2003) was expressed as a GST-fusion[22] in Escherichia coli BL21(DE3) CodonPlus^TM cells (Stratagene). The SETD3 mutants at residue 255 (N255A; pXC2093 and N255V; pXC2094) were generated with Q5 Site-Directed Mutagenesis Kit (New England Biolabs), confirmed by sequencing and the same protocol for expression and purification were followed. Briefly, the purification was conducted in a BIO-RAD NGC^TM system using a three-column chromatography of glutathione-sepharose, HiTrap Q-HP and Superdex 200. The GST tag was removed by PreScisson Protease (purified in-house). The purified SETD3 proteins at a concentration ~25–35 mg/ml were kept at −80 °C in storage buffer for future use [20 mM Tris (pH 8.0), 200 mM NaCl, 5% glycerol, and 0.5 mM tris (2-carboxyethyl) phosphine (TCEP)].
A reaction mixture contained 20 mM Tris/HCl (pH 8.0) or 20 mM glycine/NaOH (pH 10.5), 50 mM NaCl, 0.1 mg/ml BSA, 1 mM DTT, 0.18–15 µM SETD3 (as indicated in Fig. 3), 40 µM SAM and varying concentration of peptides. The reactions were carried out at room temperature (~22 °C) or 37 °C for different time (20 min to 3 h) with a total volume of 20 µl, and terminated by the addition of TFA to 0.1% (v/v) for Tris/HCl (pH 8.0) or 0.4% (v/v) for Glycine/NaOH (pH 10.5). Samples terminated with the addition of 0.4% (v/v) TFA were then further diluted 4× with buffer 20 mM Tris/HCl (pH 8.0), 50 mM NaCl, 0.1 mg/ml BSA, 1 mM DTT to reduce the TFA concentration. The dependence of the velocity of product formation per enzyme on substrate concentration was analyzed according to the Michaelis–Menten equation.

[1] = pH 10.5, 37 °C, [WT] = 3 and 15 μM for long and short peptide (Fig. 3b), 4 μM (Fig. 3c)
[2] = pH 10.5, 37 °C, [WT] = 3 and 15 μM for long and short peptide (Fig. 3b), 4 μM (Fig. 3c), mean ± SD

Substance | affinity for the substrate weaker than for H73 substrate (Km, K73(66–80) vs. H73(66–80)) | maximum reaction rate slower than for H73 substrate (kcat, K73(66–80) (pH 10.5, 37 °C) vs. H73(66–80) (pH 8.0, ~22 °C)) | loss in catalytic efficiency (kcat/Km, K73(66–80) vs. H73(66–80)) | kcat/Km [1] [M⁻¹ s⁻¹] | Km [2] [µM] | kcat [2] [s⁻¹] | increase of catalytic efficiency on K73 by lengthened peptide (factor in kcat/Km, long (66–88) vs. short (66–80) peptide) | Km compared with H73(66–80) peptide (pH 10.5, K73(66–88) vs. H73(66–80))
K73(66–80): K73-containing (H73K) actin peptide, residues 66–80 (TLKYPIEKGIVTNWD; UniProt P60709 66-80, looked up, variant H73K) | ~ 20 -fold | ~ 40 -fold | more than 1000 -fold | 0.361 | 430 | 0.00017 |  | 
K73(66–88): K73-containing actin H73K peptide, residues 66–88 (TLKYPIEKGIVTNWDDMEKIWHH; UniProt P60709 66-88, looked up, variant H73K) |  |  |  | 36.1 | 5.2 |  | ~ 100 | about four-fold better
